{"source": "patent US20240158509A1", "about": "(MOMENTA PHARMACEUTICALS, published 2024)", "binders": {"B1": {"name": "N027 (antibody, human IgG1, lambda, N297A)", "heavy": "not shown", "light": "QSALTQPASVSGSPGQSITISCTGTGSDVGSYNLVSWYQQHPGKAPKLMIYGDSERPSGVSNRFSGSKSGNTASLTISGLQAEDEADYYCSSYAGSGIYVFGTGTKVTVLGQPKAAPSVTLFPPSSEELQANKATLVCLISDFYPGAVTVAWKADSSPVKAGVETTTPSKQSNNKYAASSYLSLTPEQWKSHKSYSCQVTHEGSTVEKTVAPTECS", "notes": "Full-length IgG; In the occupancy assays unlabeled N027 was followed by dye-labeled N027 (Dy650, VivoTag645); DyLight594-N027 was used for imaging; also called M281; anti-FcRn antibody N027"}}, "key": {"[1]": {"target": "T1, endogenous cynomolgus monkey FcRn in monocytes (cynomolgus monkey, UniProt Q8SPV9 24-365; Q8SPW0 21-119)", "T1 construct": "whole, on cells; Target occupancy was measured ex vivo by FACS on fixed and permeabilized monocytes", "T1 sequence (Q8SPV9 24-365, chain 1 of 2)": "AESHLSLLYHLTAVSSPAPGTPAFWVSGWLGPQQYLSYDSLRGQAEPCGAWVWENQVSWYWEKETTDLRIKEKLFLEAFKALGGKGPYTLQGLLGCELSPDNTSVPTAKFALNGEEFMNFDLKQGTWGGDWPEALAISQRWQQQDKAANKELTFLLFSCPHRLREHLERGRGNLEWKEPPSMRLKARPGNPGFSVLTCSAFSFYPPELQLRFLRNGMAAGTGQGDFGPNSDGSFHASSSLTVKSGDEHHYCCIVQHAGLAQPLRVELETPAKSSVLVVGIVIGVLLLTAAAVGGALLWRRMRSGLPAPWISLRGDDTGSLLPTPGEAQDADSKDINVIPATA", "T1 sequence (Q8SPW0 21-119, chain 2 of 2)": "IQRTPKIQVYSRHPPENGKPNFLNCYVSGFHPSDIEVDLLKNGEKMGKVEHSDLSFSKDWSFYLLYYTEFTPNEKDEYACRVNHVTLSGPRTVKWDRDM", "test": "target occupancy in vivo: monocytes from lysed whole blood of cynomolgus monkeys after one i.v. dose, fixed and permeabilized, unoccupied FcRn stained with Dy650-labeled N027, FACS"}, "[2]": {"target": "endogenously expressed human FcRn (human, UniProt P55899 24-365; P61769 21-119)", "sequence (P55899 24-365, chain 1 of 2)": "as the sequence (Q8SPV9 24-365, chain 1 of 2) above, with D39N, Q44E, S99G, G189S, N190S, M217L, T269S, S319V, S332L, I335V counted along it", "sequence (P61769 21-119, chain 2 of 2)": "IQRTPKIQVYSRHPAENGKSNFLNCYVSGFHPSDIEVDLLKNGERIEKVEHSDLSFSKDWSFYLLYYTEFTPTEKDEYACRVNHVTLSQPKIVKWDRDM", "test": "cell-based or functional assay"}}, "data": [{"binder": "B1", "values": [{"measurement": "binding result", "setting": "[1]", "result": "binds"}, {"measurement": "intracellular IgG accumulation (VivoTag645-IgG, gMFI), ~IC50, HAECs", "setting": "[2]", "result": "~0.12", "unit": "µg/mL"}, {"measurement": "intracellular IgG accumulation (VivoTag645-IgG, gMFI), ~IC50, HUVECs", "setting": "[2]", "result": "~0.15", "unit": "µg/mL"}, {"measurement": "intracellular IgG accumulation (VivoTag645-IgG, gMFI), ~IC50, HVTs", "setting": "[2]", "result": "~0.07", "unit": "µg/mL"}]}]}
